According to patent publication US20240287161A1 (NATIONAL UNIVERSITY CORPORATION TOTTORI UNIVERSITY, published 2024):

Biological target: T1, HCoV-HKU1 trimeric S protein (amino acids 13-1293) with T4 foldon, histidine tag and strep-tag (HCoV-HKU1, UniProt Q5MQD0 13-1297)
T1 sequence: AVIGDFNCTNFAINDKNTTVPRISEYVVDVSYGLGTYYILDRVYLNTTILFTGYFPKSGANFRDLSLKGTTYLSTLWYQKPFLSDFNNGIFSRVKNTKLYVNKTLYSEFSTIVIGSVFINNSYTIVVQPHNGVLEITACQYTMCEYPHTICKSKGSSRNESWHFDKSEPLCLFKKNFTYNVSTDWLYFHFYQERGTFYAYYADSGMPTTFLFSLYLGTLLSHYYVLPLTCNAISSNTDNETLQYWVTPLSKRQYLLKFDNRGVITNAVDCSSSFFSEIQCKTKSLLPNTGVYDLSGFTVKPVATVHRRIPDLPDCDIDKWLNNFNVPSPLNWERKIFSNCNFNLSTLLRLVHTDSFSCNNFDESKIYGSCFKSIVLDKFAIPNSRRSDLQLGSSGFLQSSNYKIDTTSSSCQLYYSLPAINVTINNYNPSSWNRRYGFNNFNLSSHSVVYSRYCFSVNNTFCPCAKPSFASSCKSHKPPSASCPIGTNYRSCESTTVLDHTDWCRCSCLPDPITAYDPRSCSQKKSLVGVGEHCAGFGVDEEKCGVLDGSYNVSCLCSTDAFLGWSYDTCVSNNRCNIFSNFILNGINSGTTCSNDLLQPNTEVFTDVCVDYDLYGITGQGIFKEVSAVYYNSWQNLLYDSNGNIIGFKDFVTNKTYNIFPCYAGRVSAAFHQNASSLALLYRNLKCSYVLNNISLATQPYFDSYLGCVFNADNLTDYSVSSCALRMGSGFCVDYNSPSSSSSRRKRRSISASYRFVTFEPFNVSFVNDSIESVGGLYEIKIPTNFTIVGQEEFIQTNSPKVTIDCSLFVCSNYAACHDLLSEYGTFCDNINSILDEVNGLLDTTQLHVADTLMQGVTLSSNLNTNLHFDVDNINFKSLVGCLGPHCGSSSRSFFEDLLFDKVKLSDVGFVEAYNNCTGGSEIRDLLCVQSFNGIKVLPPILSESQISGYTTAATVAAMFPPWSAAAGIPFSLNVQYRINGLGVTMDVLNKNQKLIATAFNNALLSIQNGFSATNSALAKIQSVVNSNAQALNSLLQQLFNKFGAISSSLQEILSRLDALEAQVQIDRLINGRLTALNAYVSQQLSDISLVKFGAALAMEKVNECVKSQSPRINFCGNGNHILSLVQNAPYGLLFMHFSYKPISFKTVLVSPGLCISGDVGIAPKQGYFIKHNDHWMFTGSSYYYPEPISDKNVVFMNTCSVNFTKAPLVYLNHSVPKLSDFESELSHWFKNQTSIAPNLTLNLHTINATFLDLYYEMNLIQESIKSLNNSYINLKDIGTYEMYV
Assay: ELISA on coated S-trimeric antigen, anti-human IgG-HRP [Human IgG1, NT-108]

B1: NT-108 (recombinant human IgG1/kappa antibody) (antibody, V domains shown)
VH: EVQLQQSGPGLVKPSQTLSLTCSISGDSVSSNSAAWNWIRQSPSRGLEWLGRTYYRSKWYNDYAGTVKSRIAINPDTSKNQFSLHLNSVTPEDTAVYFCARVISVAGYAFDIWGQGTMVTVSS
VL: EIVLTQSPGTLSLSPGERATLSCRASQSVSSTFLAWYQQKPGQAPRLLIYGASYMATGIPDRFSGSGSGTDFTLTISRLEPEDFAVYYCQQYGSSLTFGGGTKLEIK
binding result: no binding (tested: 1000 ng/ml)
